B1: RTP4 (parent)
chain: AFGWFRCSSCQRSWASAQVQILCH
B2: OR3A1 (parent)
chain: PMYFFLGNLSVLDVGCISVTVPSM
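Note: lentivirally expressed fusions sorted by FACS into six bins by GFP to DsRed ratio, PSI derived from sequencing read proportions per bin multiplied by bin number.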

Variants of B1 are the subject of the first data set. The data set can be described thus: protein stability index of a GFP-peptide fusion (GPS, HEK-293T) (PSI 1-6); higher = more stable. The settings on record: c terminus: a fixed tail appended.
As to AFGWFRCSLCQRSWASAQVQILCH [S9L], the protein stability index is 2.59.

For the variant AFGWFRCSHCQRSWASAQVQILCH [S9H], the protein stability index is 3.52.

For the variant AFGWFRCSSFQRSWASAQVQILCH [C10F], the protein stability index was found to be 3.06.

AFGWFRCSSNQRSWASAQVQILCH [C10N]: the protein stability index amounted to 3.16.

With AFGWFRCSSGQRSWASAQVQILCH [C10G], the protein stability index is 3.33.

AFGWFRCSSLQRSWASAQVQILCH [C10L]: the protein stability index worked out at 2.7.

As to AFGWFRCSSRQRSWASAQVQILCH [C10R], the protein stability index was 2.77.

Turning to AFGPFRCSSCQRSWASAQVQILCH [W4P], the protein stability index was 3.99.

Take AFGYFRCSSCQRSWASAQVQILCH [W4Y]: the protein stability index was 2.37.

For AFGCFRCSSCQRSWASAQVQILCH [W4C], the protein stability index is 2.77.

AFGTFRCSSCQRSWASAQVQILCH [W4T]: the protein stability index is 1.47.

For AFGEFRCSSCQRSWASAQVQILCH [W4E], the protein stability index came out at 1.91.

Turning to AFGHFRCSSCQRSWASAQVQILCH [W4H], the protein stability index was determined as 2.49.

For the variant AFGGFRCSSCQRSWASAQVQILCH [W4G], the protein stability index came to 3.48.

As to AFGLFRCSSCQRSWASAQVQILCH [W4L], the protein stability index was 1.67.

As for AFGWFRCSSCQLSWASAQVQILCH [R12L], the protein stability index was determined as 1.65.

Consider AFGWFRCSSCQDSWASAQVQILCH [R12D], for which the protein stability index was found to be 2.1.

As to AFGWFRCSSCQSSWASAQVQILCH [R12S], the protein stability index was 2.

AFGWFRCSSCQMSWASAQVQILCH [R12M]: the protein stability index was 2.86.

Turning to AFGWFRCSSCQNSWASAQVQILCH [R12N], the protein stability index came to 1.91.

As for AFGWFRCSSCQPSWASAQVQILCH [R12P], the protein stability index amounted to 3.2.

On to AFGWFRCSSCQKSWASAQVQILCH [R12K], for which the protein stability index worked out at 1.9.

AFGWFRCSSCQYSWASAQVQILCH [R12Y]: the protein stability index came out at 2.83.

On to AFGWFRCSSCQCSWASAQVQILCH [R12C], for which the protein stability index is 3.76.

Consider AFGWFRCSSCQISWASAQVQILCH [R12I], for which the protein stability index was found to be 2.33.

As to AFGWFRCSSCQTSWASAQVQILCH [R12T], the protein stability index was found to be 3.84.

As for AFGWFRCSSCQWSWASAQVQILCH [R12W], the protein stability index was 2.71.

AFGWFRCSSCQQSWASAQVQILCH [R12Q]: the protein stability index was 3.2.

In the case of GFGWFRCSSCQRSWASAQVQILCH [A1G], the protein stability index is 3.21.

For the variant HFGWFRCSSCQRSWASAQVQILCH [A1H], the protein stability index was determined as 1.78.

As to MFGWFRCSSCQRSWASAQVQILCH [A1M], the protein stability index was determined as 2.42.

Take CFGWFRCSSCQRSWASAQVQILCH [A1C]: the protein stability index is 2.22.

With WFGWFRCSSCQRSWASAQVQILCH [A1W], the protein stability index came out at 2.44.

As for EFGWFRCSSCQRSWASAQVQILCH [A1E], the protein stability index is 1.79.

With TFGWFRCSSCQRSWASAQVQILCH [A1T], the protein stability index amounted to 2.12.

Take VFGWFRCSSCQRSWASAQVQILCH [A1V]: the protein stability index worked out at 2.11.

On to YFGWFRCSSCQRSWASAQVQILCH [A1Y], for which the protein stability index came to 2.87.

Consider RFGWFRCSSCQRSWASAQVQILCH [A1R], for which the protein stability index came to 3.15.

On to LFGWFRCSSCQRSWASAQVQILCH [A1L], for which the protein stability index was found to be 2.49.

SFGWFRCSSCQRSWASAQVQILCH [A1S]: the protein stability index worked out at 4.21.

For KFGWFRCSSCQRSWASAQVQILCH [A1K], the protein stability index turned out to be 3.61.

The variants in a further data set derive from B2. The description is as above. The settings on record: c terminus: a fixed tail appended.
As to PMYFFLGNLSVLDQGCISVTVPSM [V14Q], the protein stability index amounted to 1.89.

For the variant PMYFFLGNLSVLDLGCISVTVPSM [V14L], the protein stability index is 4.23.

Regarding PMYFFLGNDSVLDVGCISVTVPSM [L9D], the protein stability index was found to be 2.

In the case of PMYFFLGNLSVLDVGCISRTVPSM [V19R], the protein stability index amounted to 2.38.

Turning to PMYFFLGNLSVLDVGCISFTVPSM [V19F], the protein stability index was 3.66.

As for PMYFFLGNLSVLDVGCISDTVPSM [V19D], the protein stability index is 3.51.

Regarding PMYFFLGNLEVLDVGCISVTVPSM [S10E], the protein stability index came to 3.25.

For PMYFFLGNLQVLDVGCISVTVPSM [S10Q], the protein stability index stood at 1.03.

As for PMYFVLGNLSVLDVGCISVTVPSM [F5V], the protein stability index is 2.3.

For the variant PMYRFLGNLSVLDVGCISVTVPSM [F4R], the protein stability index came out at 2.19.

Consider PMYFFLANLSVLDVGCISVTVPSM [G7A], for which the protein stability index was found to be 3.1.

Take PMYFFLGNLSVLDVGCIPVTVPSM [S18P]: the protein stability index was determined as 2.5.

For PMYFFLGNLSVLDVGCIDVTVPSM [S18D], the protein stability index worked out at 2.66.

On to PMYFFLGNLSVLDVGCITVTVPSM [S18T], for which the protein stability index is 2.94.

Regarding PMYFFLGNLSVLDVGCIQVTVPSM [S18Q], the protein stability index was determined as 2.54.

With PMYFFLGNLSVLDVGCISVTVFSM [P22F], the protein stability index came out at 2.46.

On to PMYFFLGNLSVLDVGCISVTVQSM [P22Q], for which the protein stability index amounted to 3.27.

Take PMYFFLGNLSVLDVGCISVTVTSM [P22T]: the protein stability index stood at 2.38.

For the variant PMYFFLGNLSVLDVGCISVTVLSM [P22L], the protein stability index came to 2.95.

Take PMYFFLGNLSVLDVNCISVTVPSM [G15N]: the protein stability index came to 2.63.

With PMYFFLGNLSVLDVMCISVTVPSM [G15M], the protein stability index amounted to 3.18.

Turning to PMYFFLGNLSVLDVRCISVTVPSM [G15R], the protein stability index was found to be 3.7.

As for PMYFFLGNLSVLDVICISVTVPSM [G15I], the protein stability index was determined as 2.83.

With PMYFFLGNLSVLDVGYISVTVPSM [C16Y], the protein stability index stood at 2.14.

For the variant PMYFFLGNLSVLDVGQISVTVPSM [C16Q], the protein stability index stood at 2.99.

Turning to PMYFFLGNLSVLDVGMISVTVPSM [C16M], the protein stability index stood at 3.08.

As for PMHFFLGNLSVLDVGCISVTVPSM [Y3H], the protein stability index came out at 3.35.

For the variant PMNFFLGNLSVLDVGCISVTVPSM [Y3N], the protein stability index worked out at 2.37.

For PMYFFLGNLSVNDVGCISVTVPSM [L12N], the protein stability index came to 1.49.

Consider PMYFFLGNLSVHDVGCISVTVPSM [L12H], for which the protein stability index came out at 2.78.

Consider PMYFFLGNLSVADVGCISVTVPSM [L12A], for which the protein stability index was found to be 2.37.

Turning to PMYFFLGNLSVLDVGCISVTVPCM [S23C], the protein stability index is 2.56.

Consider PMYFFLGNLSVLDVGCISVTVPVM [S23V], for which the protein stability index came to 4.29.

Regarding PMYFFLGNLSVLDVGCISVTVPAM [S23A], the protein stability index came to 3.86.

Regarding PMYFFLGNLSVLDVGCISVTVPKM [S23K], the protein stability index came to 2.42.

On to PMYFFLGNLSVLDVGCISVTVPWM [S23W], for which the protein stability index turned out to be 2.84.

On to PMYFFLGNLSVLDVGCWSVTVPSM [I17W], for which the protein stability index came to 3.68.

Take PMYFFLGNLSVLDVGCMSVTVPSM [I17M]: the protein stability index worked out at 2.76.

With PMYFFLGNLSVLDVGCDSVTVPSM [I17D], the protein stability index is 3.15.

PMYFFLGNLSVLDVGCASVTVPSM [I17A]: the protein stability index worked out at 3.4.

As for PMYFFLGGLSVLDVGCISVTVPSM [N8G], the protein stability index came to 2.71.

For PMYFFLGNLSVLGVGCISVTVPSM [D13G], the protein stability index was found to be 2.55.

PMYFFLGNLSVLDVGCISVTVPSN [M24N]: the protein stability index was 3.98.

For PMYFFLGNLSVLDVGCISVTVPSP [M24P], the protein stability index worked out at 3.41.

In the case of PMYFFLGNLSVLDVGCISVTVPSW [M24W], the protein stability index was 3.96.

Take PMYFFLGNLSVLDVGCISVTVPSC [M24C]: the protein stability index is 2.27.

PMYFFLGNLSVLDVGCISVTWPSM [V21W]: the protein stability index worked out at 2.5.

Consider PMYFFLGNLSVLDVGCISVTMPSM [V21M], for which the protein stability index was found to be 2.58.

As to AMYFFLGNLSVLDVGCISVTVPSM [P1A], the protein stability index turned out to be 2.23.

For the variant IMYFFLGNLSVLDVGCISVTVPSM [P1I], the protein stability index turned out to be 2.88.

For PHYFFLGNLSVLDVGCISVTVPSM [M2H], the protein stability index came out at 2.67.

For PKYFFLGNLSVLDVGCISVTVPSM [M2K], the protein stability index worked out at 3.24.

For PMYFFLGNLSVLDVGCISVMVPSM [T20M], the protein stability index was found to be 4.27.

(Values after the supplement of paper PMC10567573.)
